Assay results reported in paper PMC7344962 (2020).

Columns and labels:
[1] = target: T1, major surface antigen 1 (SAG1) of Toxoplasma gondii (Toxoplasma gondii, UniProt P13664 48-336); assay: SPR; two-state fit (KDapp)
T1 chain: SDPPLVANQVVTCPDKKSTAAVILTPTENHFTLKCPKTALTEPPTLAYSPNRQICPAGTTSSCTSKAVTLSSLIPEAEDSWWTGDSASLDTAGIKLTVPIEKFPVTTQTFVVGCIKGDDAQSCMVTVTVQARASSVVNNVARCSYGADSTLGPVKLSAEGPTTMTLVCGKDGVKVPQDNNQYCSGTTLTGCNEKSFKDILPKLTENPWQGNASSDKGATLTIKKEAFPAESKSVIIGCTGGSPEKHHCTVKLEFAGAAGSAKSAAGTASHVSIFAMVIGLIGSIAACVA

[2] = target: T1, major surface antigen 1 (SAG1) of …; assay: SPR; two-state fit (kd1)
[3] = target: T1, major surface antigen 1 (SAG1) of …; assay: SPR
[4] = target: T1, major surface antigen 1 (SAG1) of …; assay: SPR; Langmuir 1:1 fit
[5] = target: T1, major surface antigen 1 (SAG1) of …; assay: SPR

B1: scFv S1A0 (scFv, V domains shown)
VH: QVQLQQSGAELVRPGVSVKISCKGSGYTFTDYGMHWVKQSHAKSLEWIGIISTYSGDASYNQKFKGKATMTVDKSSSTAYMELARLTSEDSAIYYCARSSTWYYFDYWGQGTTLTVSS
VL: DIQVTQTTSSLSASLGDRVTISCRASQDISNYLNWYQQKPDGTVKLLIYYTSRLHSGVPSRFSGSGSGTDYSLTISNLEQEDIATYFCQQGNTLPYTFGGGTKLEIK
- Kd [1]: 0.181 µM
- koff [2]: 0.0137 s⁻¹

B2: scFv S1C4 (scFv, V domains shown)
VH: QVQLQQSGAELVRPGVSVKISCKGSGYTFTDYGMHWVKQRPGHGLEWIGIISTYSGDASYNQKFKGKATMTVDKSSSTAYMELARLTSEDSAIYYCARSSTWYYFDYWGQGTTLTVSS
VL: DIQMTQTPSSLSASLGDRVTISCRASQDISNYLNWYQQKPDGTVKLLIYYTSRLHSGVPSRFSGSGSGTDYSLTISNLEPEDIATYYCQQGNTLPYTFGGGTKLEIK
- Kd [3]: 0.061 µM
- Kd [4]: 0.061 µM
- Kd [1]: 0.059 µM
- koff [2]: 0.0158 s⁻¹

B3: scFv S1D4 (scFv, V domains shown)
VH: QVQLQQSGAELVRPGTSVKISCKASGYTFTDYGMHWVKQRPGHGLEWIGIISTYSGDASYNQKFKGKATMTVDKSSSTAYMQLSSLTSEDSAVYYCARSSTWYYFDYWGQGTLVTVSA
VL: DIQMTQTPSSLSASLGDRVTISCRASQDISNYLNWYQQKPDGTVKLLIYYTSRLHSGVPSRFSGSGSGTDYSLTISNLEPEDIATYYCQQGNTLPYTFGGGTKLEIK
- Kd [5]: 0.4 µM
- Kd [4]: 0.4 µM
- Kd [1]: 0.36 µM
- koff [2]: 0.0183 s⁻¹

B4: scFv S1A4 (scFv, V domains shown)
VH: QVQLQQSGAELVRPGVSVKISCKGSGYTFTDYGMHWVKQSHAKSLEWIGIISTYSGDASYNQKFKGKATMTVDKSSSTAYMELARLTSEDSAIYYCARSSTWYYFDYWGQGTTLTVSS
VL: DIQMTQTPSSLSASLGDRVTISCRASQDISNYLNWYQQKPDGTVKLLIYYTSRLHSGVPSRFSGSGSGTDYSLTISNLEPEDIATYYCQQGNTLPYTFGGGTKLEIK
- Kd [3]: 0.236 µM
- Kd [4]: 0.236 µM
- Kd [1]: 0.117 µM
- koff [2]: 0.0142 s⁻¹

B5: scFv S1B4 (scFv, V domains shown)
VH: QVQLQQSGAELVRPGTSVKISCKASGYTFTDYGMHWVKQSHAKSLEWIGIISTYSGDASYNQKFKGKATMTVDKSSSTAYMQLSSLTSEDSAVYYCARSSTWYYFDYWGQGTLVTVSA
VL: DIQMTQTPSSLSASLGDRVTISCRASQDISNYLNWYQQKPDGTVKLLIYYTSRLHSGVPSRFSGSGSGTDYSLTISNLEPEDIATYYCQQGNTLPYTFGGGTKLEIK
- Kd [3]: 0.323 µM
- Kd [4]: 0.323 µM
- Kd [1]: 0.329 µM
- koff [2]: 0.0255 s⁻¹
